How the values were obtained:
amyloid-β (Homo sapiens) = amyloid-β (Homo sapiens) (UniProt P05067); settings: cited from earlier work
[1] = molecular target: recombinant extracellular domain of sortilin (UniProt Q99523); experiment: SPR
Chain of recombinant extracellular domain of sortilin (Q99523 78-755): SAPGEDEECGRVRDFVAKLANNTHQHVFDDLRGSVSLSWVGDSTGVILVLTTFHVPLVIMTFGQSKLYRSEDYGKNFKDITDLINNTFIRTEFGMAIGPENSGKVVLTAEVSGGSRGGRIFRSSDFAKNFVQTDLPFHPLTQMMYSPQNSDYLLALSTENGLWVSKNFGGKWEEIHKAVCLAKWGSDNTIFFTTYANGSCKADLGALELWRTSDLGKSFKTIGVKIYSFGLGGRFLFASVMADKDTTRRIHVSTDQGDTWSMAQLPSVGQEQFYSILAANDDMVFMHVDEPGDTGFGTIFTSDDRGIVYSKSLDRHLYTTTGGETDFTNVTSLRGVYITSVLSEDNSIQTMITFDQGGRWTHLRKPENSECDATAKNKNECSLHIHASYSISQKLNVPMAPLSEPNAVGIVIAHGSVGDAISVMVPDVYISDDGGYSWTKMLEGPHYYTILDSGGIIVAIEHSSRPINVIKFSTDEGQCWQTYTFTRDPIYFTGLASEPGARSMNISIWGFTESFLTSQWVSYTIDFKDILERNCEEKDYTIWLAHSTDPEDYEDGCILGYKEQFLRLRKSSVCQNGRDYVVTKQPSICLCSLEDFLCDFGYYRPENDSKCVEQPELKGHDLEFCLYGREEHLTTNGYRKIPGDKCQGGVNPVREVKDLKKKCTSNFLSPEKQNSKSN

Chain of LRP1 (Q07954 20-4544): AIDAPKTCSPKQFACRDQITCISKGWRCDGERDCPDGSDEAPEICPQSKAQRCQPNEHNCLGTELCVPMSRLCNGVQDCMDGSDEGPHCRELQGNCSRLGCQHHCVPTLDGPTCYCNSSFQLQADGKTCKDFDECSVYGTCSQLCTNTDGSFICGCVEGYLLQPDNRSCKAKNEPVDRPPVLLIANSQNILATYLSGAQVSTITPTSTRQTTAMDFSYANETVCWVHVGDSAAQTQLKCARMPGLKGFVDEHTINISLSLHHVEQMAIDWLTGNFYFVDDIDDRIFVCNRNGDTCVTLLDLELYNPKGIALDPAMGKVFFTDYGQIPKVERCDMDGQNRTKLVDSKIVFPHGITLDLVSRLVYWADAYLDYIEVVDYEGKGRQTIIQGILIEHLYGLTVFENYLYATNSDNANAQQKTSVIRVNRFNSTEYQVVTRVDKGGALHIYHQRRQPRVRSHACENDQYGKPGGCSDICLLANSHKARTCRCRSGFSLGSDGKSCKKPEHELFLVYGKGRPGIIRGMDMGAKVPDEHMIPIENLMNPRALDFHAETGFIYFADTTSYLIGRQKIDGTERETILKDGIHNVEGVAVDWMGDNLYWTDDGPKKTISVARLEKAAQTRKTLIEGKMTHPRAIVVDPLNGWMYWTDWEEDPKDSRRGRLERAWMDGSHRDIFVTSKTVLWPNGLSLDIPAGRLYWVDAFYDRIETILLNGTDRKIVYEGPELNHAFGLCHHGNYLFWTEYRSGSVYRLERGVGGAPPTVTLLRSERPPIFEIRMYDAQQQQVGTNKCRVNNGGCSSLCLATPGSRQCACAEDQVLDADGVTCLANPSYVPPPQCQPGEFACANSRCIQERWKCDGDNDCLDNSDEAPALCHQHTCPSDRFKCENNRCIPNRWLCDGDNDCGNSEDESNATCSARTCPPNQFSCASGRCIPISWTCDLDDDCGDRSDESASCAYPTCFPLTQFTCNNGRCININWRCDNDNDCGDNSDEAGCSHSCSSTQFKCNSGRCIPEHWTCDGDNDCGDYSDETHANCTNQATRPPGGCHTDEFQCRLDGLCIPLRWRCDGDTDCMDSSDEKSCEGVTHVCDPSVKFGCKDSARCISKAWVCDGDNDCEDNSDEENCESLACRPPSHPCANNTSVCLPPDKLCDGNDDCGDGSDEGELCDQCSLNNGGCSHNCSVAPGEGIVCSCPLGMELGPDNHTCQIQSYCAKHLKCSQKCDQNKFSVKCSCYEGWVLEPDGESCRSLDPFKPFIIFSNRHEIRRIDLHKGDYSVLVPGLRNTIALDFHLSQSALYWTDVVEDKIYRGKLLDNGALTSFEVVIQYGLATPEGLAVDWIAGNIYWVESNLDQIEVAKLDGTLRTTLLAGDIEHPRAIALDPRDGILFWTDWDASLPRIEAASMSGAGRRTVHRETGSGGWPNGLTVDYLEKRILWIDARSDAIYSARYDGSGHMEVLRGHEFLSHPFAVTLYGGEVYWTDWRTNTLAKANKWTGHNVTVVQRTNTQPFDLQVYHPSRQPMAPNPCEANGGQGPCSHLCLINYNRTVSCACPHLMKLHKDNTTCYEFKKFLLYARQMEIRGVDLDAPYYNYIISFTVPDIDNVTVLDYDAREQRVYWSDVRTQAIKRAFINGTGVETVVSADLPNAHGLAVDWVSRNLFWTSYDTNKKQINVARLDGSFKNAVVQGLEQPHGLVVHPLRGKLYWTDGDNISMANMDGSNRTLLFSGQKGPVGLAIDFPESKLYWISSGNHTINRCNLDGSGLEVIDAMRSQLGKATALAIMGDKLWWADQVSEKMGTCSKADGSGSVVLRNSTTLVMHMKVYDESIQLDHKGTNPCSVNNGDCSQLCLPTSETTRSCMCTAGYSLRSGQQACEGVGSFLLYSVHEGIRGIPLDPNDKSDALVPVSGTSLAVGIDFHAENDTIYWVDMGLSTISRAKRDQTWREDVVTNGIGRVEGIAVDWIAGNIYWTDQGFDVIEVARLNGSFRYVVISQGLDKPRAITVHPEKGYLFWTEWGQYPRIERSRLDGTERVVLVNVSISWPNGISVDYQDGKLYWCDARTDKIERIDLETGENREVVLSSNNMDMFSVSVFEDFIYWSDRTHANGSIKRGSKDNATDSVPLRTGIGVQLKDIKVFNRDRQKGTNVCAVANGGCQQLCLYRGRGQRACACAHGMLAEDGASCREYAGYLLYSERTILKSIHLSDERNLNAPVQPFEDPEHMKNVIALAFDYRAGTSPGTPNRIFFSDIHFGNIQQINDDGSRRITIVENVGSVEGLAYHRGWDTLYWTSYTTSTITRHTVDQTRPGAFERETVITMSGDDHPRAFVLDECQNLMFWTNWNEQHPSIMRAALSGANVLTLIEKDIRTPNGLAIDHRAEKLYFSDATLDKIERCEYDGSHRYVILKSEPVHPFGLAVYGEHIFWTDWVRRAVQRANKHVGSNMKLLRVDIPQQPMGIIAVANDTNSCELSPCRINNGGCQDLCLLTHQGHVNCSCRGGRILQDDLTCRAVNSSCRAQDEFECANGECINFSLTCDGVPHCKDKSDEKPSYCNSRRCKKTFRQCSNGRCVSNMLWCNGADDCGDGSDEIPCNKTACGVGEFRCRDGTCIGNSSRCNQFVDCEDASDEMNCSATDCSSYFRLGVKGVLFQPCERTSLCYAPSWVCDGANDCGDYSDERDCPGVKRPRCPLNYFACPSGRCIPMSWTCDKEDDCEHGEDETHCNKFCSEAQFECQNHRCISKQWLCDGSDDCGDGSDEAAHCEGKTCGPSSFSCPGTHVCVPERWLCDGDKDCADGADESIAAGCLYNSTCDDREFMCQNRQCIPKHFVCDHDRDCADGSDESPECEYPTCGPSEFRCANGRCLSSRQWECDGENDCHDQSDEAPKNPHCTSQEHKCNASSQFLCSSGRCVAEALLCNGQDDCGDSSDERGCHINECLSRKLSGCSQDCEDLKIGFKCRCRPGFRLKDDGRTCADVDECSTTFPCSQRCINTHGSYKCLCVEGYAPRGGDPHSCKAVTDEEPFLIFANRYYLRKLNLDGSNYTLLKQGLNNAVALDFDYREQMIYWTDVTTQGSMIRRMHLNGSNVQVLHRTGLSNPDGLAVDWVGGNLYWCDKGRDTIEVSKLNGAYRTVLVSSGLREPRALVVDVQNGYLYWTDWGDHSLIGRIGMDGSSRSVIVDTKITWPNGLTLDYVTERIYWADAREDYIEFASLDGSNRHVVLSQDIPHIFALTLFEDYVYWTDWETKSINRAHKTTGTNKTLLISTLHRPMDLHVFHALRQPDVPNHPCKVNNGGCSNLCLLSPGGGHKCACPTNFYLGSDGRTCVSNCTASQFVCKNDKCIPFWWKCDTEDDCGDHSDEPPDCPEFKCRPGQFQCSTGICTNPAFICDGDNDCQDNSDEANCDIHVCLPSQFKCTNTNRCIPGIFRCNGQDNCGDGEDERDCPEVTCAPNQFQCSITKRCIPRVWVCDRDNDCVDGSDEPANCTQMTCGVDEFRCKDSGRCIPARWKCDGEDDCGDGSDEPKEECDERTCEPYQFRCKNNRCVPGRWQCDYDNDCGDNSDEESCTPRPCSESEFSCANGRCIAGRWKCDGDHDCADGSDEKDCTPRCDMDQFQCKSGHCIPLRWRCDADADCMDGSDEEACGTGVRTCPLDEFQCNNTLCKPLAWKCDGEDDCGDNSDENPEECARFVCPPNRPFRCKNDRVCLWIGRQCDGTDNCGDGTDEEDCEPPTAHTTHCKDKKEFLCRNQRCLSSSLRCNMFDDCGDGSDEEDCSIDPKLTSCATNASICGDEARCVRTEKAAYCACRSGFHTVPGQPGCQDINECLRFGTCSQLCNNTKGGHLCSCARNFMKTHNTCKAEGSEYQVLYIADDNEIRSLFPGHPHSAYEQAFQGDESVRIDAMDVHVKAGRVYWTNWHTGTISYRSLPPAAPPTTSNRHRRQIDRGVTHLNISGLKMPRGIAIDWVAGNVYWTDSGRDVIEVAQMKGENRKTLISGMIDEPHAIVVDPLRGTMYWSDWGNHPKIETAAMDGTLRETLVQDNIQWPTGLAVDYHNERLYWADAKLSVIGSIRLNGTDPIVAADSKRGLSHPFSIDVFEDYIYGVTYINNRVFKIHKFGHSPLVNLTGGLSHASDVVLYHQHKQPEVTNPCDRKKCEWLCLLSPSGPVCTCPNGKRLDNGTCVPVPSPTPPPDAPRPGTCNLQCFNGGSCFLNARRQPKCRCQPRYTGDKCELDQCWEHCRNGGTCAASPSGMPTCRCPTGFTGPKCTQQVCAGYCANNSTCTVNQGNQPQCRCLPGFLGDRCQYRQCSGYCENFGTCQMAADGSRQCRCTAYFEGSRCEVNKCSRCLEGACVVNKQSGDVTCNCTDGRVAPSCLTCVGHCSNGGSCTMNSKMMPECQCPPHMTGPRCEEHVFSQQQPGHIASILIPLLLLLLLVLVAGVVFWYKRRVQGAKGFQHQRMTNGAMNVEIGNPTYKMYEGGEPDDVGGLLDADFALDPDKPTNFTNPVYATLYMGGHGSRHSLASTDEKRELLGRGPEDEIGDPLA

Kd [1] | Substance | Kd (amyloid-β (Homo sapiens))
 | LRP1 (from UniProt Q07954) | 0.57 nM
117 nM | recombinant human APOE2 (from UniProt P02649 19-317) (natural protein) | 
114 nM | recombinant human APOE4 (from UniProt P02649 19-317) (natural protein) | 

— publication PMC3744345
